Laboratory results published in patent publication US10494415B2, “Insulin-like growth factor 2 (IGF2) binding agents” (Cancer Research Technology Limited, priority 2015, dated 2019).
Each block holds one molecule with its values, some of them ahead of it.

Biological target: IGF2 (Homo sapiens, UniProt P01344)
Test: SPR (Biacore T200) of recombinant IGF2R domain 11 mutants on immobilised biotinylated IGF2
Format: binding
Set-up: purchased GroPep
Details: for off rate / koff (figure legend) / on rate / kon (figure legend): FIG. 2, 3
Source text: Surface plasmon resonance (SPR) binding analysis of recombinant M6P/IGF2R domain 11 mutants interaction with IGF2. Kon indicates association (on) rate; koff, dissociation (off) rate; RU, response units. Binding to IGF2 assessed with BIAcore T200 using purified biotinylated IGF2 and IGF1 on a streptavidin biosensor chip. Recombinant proteins were expressed either in E. coli and/or P. pastoris. All the mutants in the FG and CD loops are on the domain 11^AB5 background for the AB loop unless otherwise stated. All experiments were carried out at 25° C. in HBS-EP buffer (pH 7.4), were repeated 2-5 times on two independent BIAcore chips. nd=not determined. Data for KD expressed as mean of each experiment, and means of kon and koff are shown.
Measurements were carried out at 25° C. in HBS-EP buffer (pH 7.4) (nd=not determined, np=no protein). Data for KD expressed as mean of each experiment, and means of kon and koff are shown.
Measurements were carried out at 25° C. in MES-EP buffer, 20 mM MES pH 6.5, 150 mM NaCl, 3 mM EDTA, and 0.005% (v/v) surfactant P20). Data for KD expressed as mean of each experiment, and means of kon and koff are shown.
Final kinetic analysis of mutants by SPR was conducted using a Biacore T200 biosensor at 25° C. in either HBS-EP (10 mM HEPES pH 7.4, 150 mM NaCl, 3 mM EDTA, and 0.005% (v/v) surfactant P20) or MES-EP (20 mM MES pH 6.5, 150 mM NaCl, 3 mM EDTA, and 0.005% (v/v) surfactant P20) at a flow-rate of 40 μL min^−1. […] For the analysis of the Fc-domain 11^AB5 interaction, approximately 50 RU of a biotinylated IGF2:biotinylated ubiquitin mixture (1:8 proportion) was immobilized on the CM5-streptavidin chip. This interaction was also analysed by immobilizing the Fc-domain 11^AB5 and Fc-domain 11^AB5-RHH (or Fc-domain 11^I1572A as control) by Human Antibody Capture (monoclonal mouse anti-human IgG antibody immobilised on a CM5 chip by amine coupling, GE Healthcare) with and without human IgG1 Fc fragment (Bethyl Laboratories, UK) in the control flow cell. Increasing concentrations of IGF2^1-67, proIGF2^1-104, proIGF2^1-156 and IGF1 ranging from 0.125 to 32 nM were injected. T200 BiaEvaluation software (GE Healthcare) was used to fit the resulting curves according to a 1:1 binding model. Steady state affinities were determined using the kinetic data, taking the response average at 5 seconds before injection end and for 5 seconds average. Thermodynamic data was performed across the temperature range of 10° C. to 30° C., van't Hoff and Erying plots generated and ΔH, −TΔS and ΔG values determined as previously described.

IGF2, sequence (P01344 25-91): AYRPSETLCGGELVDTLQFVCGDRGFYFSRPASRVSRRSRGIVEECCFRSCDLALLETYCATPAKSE

B1: K1631W: domain 11 HI loop mutant K1631W, probably AB5 background (protein)
chain: MKSNEHDDCQVTNPSTGHLFDLSSLSGRAGFTAAYAKGWGVYMSICGENENCPPGVGACFGQTRISVGKANKRLRYVDQVLQLVYKDGSPCPSKSGLSYKSVISFVCRPEAGPTNRPMLISLDWQTCTLFFSWHTPLACEQATECSV
- Kinetics koff (Table 1, 25° C., HBS-EP pH 7.4): 0.0034 s⁻¹
- Kinetics kon (Table 1, 25° C., HBS-EP pH 7.4): 1.18e+06 M⁻¹ s⁻¹
- Kd (pH 7.4): 3.23 nM

B3: S1600V: domain 11 AB5 background + FG loop S1600V (protein)
chain: MKSNEHDDCQVTNPSTGHLFDLSSLSGRAGFTAAYAKGWGVYMSICGENENCPPGVGACFGQTRISVGKANKRLRYVDQVLQLVYKDGSPCPVKSGLSYKSVISFVCRPEAGPTNRPMLISLDKQTCTLFFSWHTPLACEQATECSV
- Kinetics koff (Table 1, 25° C., HBS-EP pH 7.4): >0.2 s⁻¹

B6: S1602H: domain 11 AB5 background + FG loop S1602H (protein)
chain: MKSNEHDDCQVTNPSTGHLFDLSSLSGRAGFTAAYAKGWGVYMSICGENENCPPGVGACFGQTRISVGKANKRLRYVDQVLQLVYKDGSPCPSKHGLSYKSVISFVCRPEAGPTNRPMLISLDKQTCTLFFSWHTPLACEQATECSV
- Kinetics koff (Table 1, 25° C., HBS-EP pH 7.4): 0.0112 s⁻¹
- Kinetics kon (Table 1, 25° C., HBS-EP pH 7.4): 3.61e+06 M⁻¹ s⁻¹

B7: K1601R: domain 11 AB5 background + FG loop K1601R (protein)
chain: MKSNEHDDCQVTNPSTGHLFDLSSLSGRAGFTAAYAKGWGVYMSICGENENCPPGVGACFGQTRISVGKANKRLRYVDQVLQLVYKDGSPCPSRSGLSYKSVISFVCRPEAGPTNRPMLISLDKQTCTLFFSWHTPLACEQATECSV
- Kinetics koff (Table 1, 25° C., HBS-EP pH 7.4): 0.0251 s⁻¹
- Kinetics kon (Table 1, 25° C., HBS-EP pH 7.4): 5.28e+06 M⁻¹ s⁻¹

B8: AB3 Q1569R P1597H S1602H G1603K: domain 11 AB3 + Q1569R, P1597H, S1602H, G1603K (protein)
chain: MKSNEHDDCQVTNPSTGHLFDLSSLSGRAGFTAAYSKSGVVYMSICGENENCPPGVGACFGRTRISVGKANKRLRYVDQVLQLVYKDGSHCPSKHKLSYKSVISFVCRPEAGPTNRPMLISLDKQTCTLFFSWHTPLACEQATECSV
- off rate / koff (figure legend): 0.0108 s⁻¹
- on rate / kon (figure legend): 1.75e+07 M⁻¹ s⁻¹
- Kinetics koff (Table 3, 25° C., HBS-EP pH 7.4): 0.0108 s⁻¹
- Kinetics kon (Table 3, 25° C., HBS-EP pH 7.4): 1.75e+07 M⁻¹ s⁻¹
- Kinetics koff (Table 4, MES-EP pH 6.5): 0.0087 s⁻¹
- Kinetics kon (Table 4, MES-EP pH 6.5): 2.43e+07 M⁻¹ s⁻¹

B9: P1599A: domain 11 FG loop mutant P1599A, AB5 background unless otherwise stated (protein)
chain: MKSNEHDDCQVTNPSTGHLFDLSSLSGRAGFTAAYAKGWGVYMSICGENENCPPGVGACFGQTRISVGKANKRLRYVDQVLQLVYKDGSPCASKSGLSYKSVISFVCRPEAGPTNRPMLISLDKQTCTLFFSWHTPLACEQATECSV
- Kinetics koff (Table 1, 25° C., HBS-EP pH 7.4): >0.1 s⁻¹

B11: K1601A: domain 11 AB5 background + FG loop K1601A (protein)
chain: MKSNEHDDCQVTNPSTGHLFDLSSLSGRAGFTAAYAKGWGVYMSICGENENCPPGVGACFGQTRISVGKANKRLRYVDQVLQLVYKDGSPCPSASGLSYKSVISFVCRPEAGPTNRPMLISLDKQTCTLFFSWHTPLACEQATECSV
- Kinetics koff (Table 1, 25° C., HBS-EP pH 7.4): 0.0220 s⁻¹
- Kinetics kon (Table 1, 25° C., HBS-EP pH 7.4): 3.26e+06 M⁻¹ s⁻¹

B15: S1600Y: domain 11 AB5 background + FG loop S1600Y (protein)
chain: MKSNEHDDCQVTNPSTGHLFDLSSLSGRAGFTAAYAKGWGVYMSICGENENCPPGVGACFGQTRISVGKANKRLRYVDQVLQLVYKDGSPCPYKSGLSYKSVISFVCRPEAGPTNRPMLISLDKQTCTLFFSWHTPLACEQATECSV
- Kinetics koff (Table 1, 25° C., HBS-EP pH 7.4): >0.2 s⁻¹

Results, then the molecule that gave them:

- Kinetics koff (Table 1, 25° C., HBS-EP pH 7.4): 0.2126 s⁻¹
- Kinetics kon (Table 1, 25° C., HBS-EP pH 7.4): 2.39e+06 M⁻¹ s⁻¹
B2: S1600A: domain 11 AB5 background + FG loop S1600A (protein)
chain: MKSNEHDDCQVTNPSTGHLFDLSSLSGRAGFTAAYAKGWGVYMSICGENENCPPGVGACFGQTRISVGKANKRLRYVDQVLQLVYKDGSPCPAKSGLSYKSVISFVCRPEAGPTNRPMLISLDKQTCTLFFSWHTPLACEQATECSV

- Kinetics koff (Table 1, 25° C., HBS-EP pH 7.4): 0.0250 s⁻¹
- Kinetics kon (Table 1, 25° C., HBS-EP pH 7.4): 1.57e+06 M⁻¹ s⁻¹
B4: S1602A: domain 11 AB5 background + FG loop S1602A (protein)
chain: MKSNEHDDCQVTNPSTGHLFDLSSLSGRAGFTAAYAKGWGVYMSICGENENCPPGVGACFGQTRISVGKANKRLRYVDQVLQLVYKDGSPCPSKAGLSYKSVISFVCRPEAGPTNRPMLISLDKQTCTLFFSWHTPLACEQATECSV

- Kinetics koff (Table 1, 25° C., HBS-EP pH 7.4): 0.0112 s⁻¹
- Kinetics kon (Table 1, 25° C., HBS-EP pH 7.4): 2.38e+06 M⁻¹ s⁻¹
B5: S1602N: domain 11 AB5 background + FG loop S1602N (protein)
chain: MKSNEHDDCQVTNPSTGHLFDLSSLSGRAGFTAAYAKGWGVYMSICGENENCPPGVGACFGQTRISVGKANKRLRYVDQVLQLVYKDGSPCPSKNGLSYKSVISFVCRPEAGPTNRPMLISLDKQTCTLFFSWHTPLACEQATECSV

- Kinetics koff (Table 1, 25° C., HBS-EP pH 7.4): >0.1 s⁻¹
B10: P1599V: domain 11 FG loop mutant P1599V, AB5 background unless otherwise stated (protein)
chain: MKSNEHDDCQVTNPSTGHLFDLSSLSGRAGFTAAYAKGWGVYMSICGENENCPPGVGACFGQTRISVGKANKRLRYVDQVLQLVYKDGSPCVSKSGLSYKSVISFVCRPEAGPTNRPMLISLDKQTCTLFFSWHTPLACEQATECSV

- Kinetics koff (Table 1, 25° C., HBS-EP pH 7.4): >0.2 s⁻¹
B12: S1600L: domain 11 AB5 background + FG loop S1600L (protein)
chain: MKSNEHDDCQVTNPSTGHLFDLSSLSGRAGFTAAYAKGWGVYMSICGENENCPPGVGACFGQTRISVGKANKRLRYVDQVLQLVYKDGSPCPLKSGLSYKSVISFVCRPEAGPTNRPMLISLDKQTCTLFFSWHTPLACEQATECSV

- off rate / koff (figure legend): 0.0038 s⁻¹
- on rate / kon (figure legend): 5.9e+06 M⁻¹ s⁻¹
- Kinetics koff (Table 3, 25° C., HBS-EP pH 7.4): 0.0038 s⁻¹
- Kinetics kon (Table 3, 25° C., HBS-EP pH 7.4): 5.9e+06 M⁻¹ s⁻¹
- Kinetics koff (Table 4, MES-EP pH 6.5): 0.0030 s⁻¹
- Kinetics kon (Table 4, MES-EP pH 6.5): 4.41e+06 M⁻¹ s⁻¹
B13: AB5 Q1569R P1597H S1602H: domain 11 AB5 + Q1569R, P1597H, S1602H (AB5-RHH) (protein)
chain: MKSNEHDDCQVTNPSTGHLFDLSSLSGRAGFTAAYAKGWGVYMSICGENENCPPGVGACFGRTRISVGKANKRLRYVDQVLQLVYKDGSHCPSKHGLSYKSVISFVCRPEAGPTNRPMLISLDKQTCTLFFSWHTPLACEQATECSV

- Kinetics koff (Table 1, 25° C., HBS-EP pH 7.4): >0.2 s⁻¹
B14: P1599G: domain 11 FG loop mutant P1599G, AB5 background unless otherwise stated (protein)
chain: MKSNEHDDCQVTNPSTGHLFDLSSLSGRAGFTAAYAKGWGVYMSICGENENCPPGVGACFGQTRISVGKANKRLRYVDQVLQLVYKDGSPCGSKSGLSYKSVISFVCRPEAGPTNRPMLISLDKQTCTLFFSWHTPLACEQATECSV

- Kinetics koff (Table 1, 25° C., HBS-EP pH 7.4): 0.0910 s⁻¹
- Kinetics kon (Table 1, 25° C., HBS-EP pH 7.4): 3.95e+06 M⁻¹ s⁻¹
B16: S1600N: domain 11 AB5 background + FG loop S1600N (protein)
chain: MKSNEHDDCQVTNPSTGHLFDLSSLSGRAGFTAAYAKGWGVYMSICGENENCPPGVGACFGQTRISVGKANKRLRYVDQVLQLVYKDGSPCPNKSGLSYKSVISFVCRPEAGPTNRPMLISLDKQTCTLFFSWHTPLACEQATECSV
